Assay results: paper PMC8336524, “Yeast Bromodomain Factor 1 and Its Human Homolog TAF1 Play Conserved Roles in Promoting Homologous Recombination” (Advanced Science, 2021)

Columns and labels:
[1] = target: acetylated H4 peptide (1–22 aa) (UniProt P02309); test: ITC; protein (≈50 µM DBD or 2YF‐DBD, ≈20 µM TAF1‐DBD) titrated with H4 peptide (≈1 mM or 0.5 mM) at 25 °C; 100 mM NaCl, 50 mM Tris‐HCl pH 7.5; 19 injections; One Set of Sites model
[2] = target: T1, 6xHis‐Rfa1 (yeast, UniProt P22336 1-621); test: pull-down; GST or GST fusion proteins immobilized on GSH‐sepharose beads, incubated with His‐tagged proteins at 4 °C for 4 h; wash 20 mM Tris–HCl pH 7.4, 200 mM NaCl, 0.5 mM EDTA; Western blot with anti‐His antibody; conditions: both partners purified
T1 construct: Rfa1, subunit of Replication Protein A (RPA), yeast; also called RPA (in the text on the truncations); source: E. coli (BL21), pET30a(+)
T1 sequence (P22336 whole entry, the tested form may be a part): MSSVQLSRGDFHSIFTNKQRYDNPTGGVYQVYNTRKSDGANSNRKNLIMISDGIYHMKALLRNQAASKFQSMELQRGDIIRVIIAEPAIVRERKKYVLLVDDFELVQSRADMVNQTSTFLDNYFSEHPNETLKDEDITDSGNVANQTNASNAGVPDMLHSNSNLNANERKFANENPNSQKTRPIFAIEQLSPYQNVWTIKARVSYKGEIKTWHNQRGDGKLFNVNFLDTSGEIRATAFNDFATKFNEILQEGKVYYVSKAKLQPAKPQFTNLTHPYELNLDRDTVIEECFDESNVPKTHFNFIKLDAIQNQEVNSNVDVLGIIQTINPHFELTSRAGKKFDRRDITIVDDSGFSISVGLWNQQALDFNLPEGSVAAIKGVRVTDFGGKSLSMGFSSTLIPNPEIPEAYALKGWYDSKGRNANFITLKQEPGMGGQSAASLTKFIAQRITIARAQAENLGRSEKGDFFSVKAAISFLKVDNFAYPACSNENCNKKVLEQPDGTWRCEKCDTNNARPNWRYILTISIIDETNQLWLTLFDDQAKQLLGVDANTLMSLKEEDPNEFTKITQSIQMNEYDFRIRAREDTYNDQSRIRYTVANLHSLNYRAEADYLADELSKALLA

Kd [1] [µM] | binding result [2] | Molecule
5 | – | TAF1‐DBD used for ITC (domain or fragment)
6 | – | DBD of Bdf1 used for ITC (domain or fragment)
– | binds | GST‐Bdf1 residues 1–295 (domain or fragment, yeast, UniProt P35817 1-295, looked up, source: E. coli (BL21), pGEX4T3; immobilized onto GSH‐sepharose beads) MTDITPVQNDVDVNGNNVNDDVSSNLKRPIDQGDPSNGLAEEENPANNQLHLKKARLDGDALTSSPAGLAENGIEGATLAANGENGYNATGSGAEDEQQGLKKEEGGQGTKQEDLDENSKQELPMEVPKEPAPAPPPEPDMNNLPQNPIPKHQQKHALLAIKAVKRLKDARPFLQPVDPVKLDIPFYFNYIKRPMDLSTIERKLNVGAYEVPEQITEDFNLMVNNSIKFNGPNAGISQMARNIQASFEKHMLNMPAKDAPPVIAKGRRSSAQEDAPIVIRRAQTHNGRPKRTIHP
– | binds | GST‐Bdf1 residues 1–317 (domain or fragment, yeast, UniProt P35817 1-317, looked up, source: E. coli (BL21), pGEX4T3; immobilized onto GSH‐sepharose beads) MTDITPVQNDVDVNGNNVNDDVSSNLKRPIDQGDPSNGLAEEENPANNQLHLKKARLDGDALTSSPAGLAENGIEGATLAANGENGYNATGSGAEDEQQGLKKEEGGQGTKQEDLDENSKQELPMEVPKEPAPAPPPEPDMNNLPQNPIPKHQQKHALLAIKAVKRLKDARPFLQPVDPVKLDIPFYFNYIKRPMDLSTIERKLNVGAYEVPEQITEDFNLMVNNSIKFNGPNAGISQMARNIQASFEKHMLNMPAKDAPPVIAKGRRSSAQEDAPIVIRRAQTHNGRPKRTIHPPKSKDIYPYESKKPKSKRLQQA
